According to PMC3855604:
Where two headings read alike, the source gives them in different places.

How the values were obtained:
[1] = target: non-glycosylated Q123K PAI-1 (human) (UniProt P05121)
[2] = target: wild type glycosylated PAI-1 (human) (UniProt P05121)
[3] = target: wild type recombinant non-glycosylated PAI-1 (human) (UniProt P05121)
[4] = target: S119C (NBD S119C) PAI-1 (human) (UniProt P05121); assay: stopped-flow fluorimetry
[5] = target: complex of NBD S119C PAI-1 with S195A tcuPA (UniProt P05121); assay: stopped-flow fluorimetry
[6] = target: S119C (NBD S119C) PAI-1 (human) (UniProt P05121); assay: stopped-flow fluorimetry; remark: listed apart in the source
[7] = target: complex of wt rPAI-1 with Vn (UniProt P05121)
[8] = target: non-glycosylated Q123K PAI-1 (human) (UniProt P05121); assay: competition read by tPA amidolytic activity
[9] = target: M447C (NBD P1′) PAI-1 (human); assay: stopped-flow fluorimetry
[10] = target: non-glycosylated Q123K PAI-1 (human) (UniProt P05121); assay: competition read by tPA amidolytic activity; remark: listed apart in the source
[11] = target: wild type glycosylated PAI-1 (human) (UniProt P05121); assay: competition read by tPA amidolytic activity
[12] = system: M447C (NBD P1′) PAI-1; assay: stopped-flow fluorimetry; settings: other: stopped-flow fluorimetry

## Monomeric vitronectin (natural protein)
[1]
  kL2 (spontaneous inactivation of Q123K PAI-1 with Vn), 37°C: 0.00018 s⁻¹
  kL2 (spontaneous inactivation of Q123K PAI-1 with Vn), 50°C: 0.0081 s⁻¹
  kL2 (spontaneous inactivation of Q123K PAI-1 with Vn), 55°C: 0.0109 s⁻¹
  kL2 (spontaneous inactivation of Q123K PAI-1 with Vn), 60°C: 0.0222 s⁻¹
[2]
  kL2 (spontaneous inactivation of PAI-1 with Vn), 37°C: 3.6e-05 s⁻¹
  kL2 (spontaneous inactivation of PAI-1 with Vn), 50°C: 0.00043 s⁻¹
  kL2 (spontaneous inactivation of PAI-1 with Vn), 55°C: 0.001 s⁻¹
  kL2 (spontaneous inactivation of PAI-1 with Vn), 60°C: 0.0049 s⁻¹
[3]
  kL2 (spontaneous inactivation of PAI-1 with Vn), 60°C: 0.011 s⁻¹
[4]
  koff: 0.0022 to 0.0072 s⁻¹
  kon: 7.2e+06 M⁻¹ s⁻¹
[5]
  kon: 1.33e+07 M⁻¹ s⁻¹
[6]
  kon: 7.5e+06 M⁻¹ s⁻¹

## S195A two chain urokinase (S356A; S195A in chymotrypsin numbering) (enzyme)
[7]
  kL4 (spontaneous inactivation of PAI-1 with Vn and S195A tcuPA), 37°C: 3.4e-06 s⁻¹
  kL4 (spontaneous inactivation of PAI-1 with Vn and S195A tcuPA), 50°C: 0.00011 s⁻¹
  kL4 (spontaneous inactivation of PAI-1 with Vn and S195A tcuPA), 55°C: 0.00012 s⁻¹
  kL4 (spontaneous inactivation of PAI-1 with Vn and S195A tcuPA), 60°C: 0.00042 s⁻¹
[1]
  kL3 (spontaneous inactivation of Q123K PAI-1 with S195A tcuPA), 37°C: 5e-05 s⁻¹
  kL3 (spontaneous inactivation of Q123K PAI-1 with S195A tcuPA), 50°C: 0.00066 s⁻¹
  kL3 (spontaneous inactivation of Q123K PAI-1 with S195A tcuPA), 60°C: 0.00122 s⁻¹
[2]
  kL3 (spontaneous inactivation of PAI-1 with S195A tcuPA), 50°C: 0.00024 s⁻¹
  kL3 (spontaneous inactivation of PAI-1 with S195A tcuPA), 60°C: 0.0025 s⁻¹
[8]
  Kd: 1.3 nM
[9]
  Kd: 24.6 nM
  koff: 0.15 s⁻¹
  kon: 6.1e+06 M⁻¹ s⁻¹
[10]
  Kd: 1.3 nM
[11]
  Kd: 1.2 nM

## recombinant two chain urokinase
[12]
  KM: 10.2 ± 2.2 µM

## recombinant two chain urokinase (enzyme)
[9]
  kon: 2.68e+07 M⁻¹ s⁻¹
